Measured values as given in patent publication US9228015B2, “Nogo receptor antagonists and methods of increasing neurite outgrowth” (Biogen Idec MA Inc., priority 2006, dated 2016).

Key:
mouse NgR3 = target: T1, mouse NgR3 (Mus musculus, UniProt Q8K0S5); assay: Antibody binding specificity: mouse Nogo receptor-3
T1 sequence (Q8K0S5 25-424): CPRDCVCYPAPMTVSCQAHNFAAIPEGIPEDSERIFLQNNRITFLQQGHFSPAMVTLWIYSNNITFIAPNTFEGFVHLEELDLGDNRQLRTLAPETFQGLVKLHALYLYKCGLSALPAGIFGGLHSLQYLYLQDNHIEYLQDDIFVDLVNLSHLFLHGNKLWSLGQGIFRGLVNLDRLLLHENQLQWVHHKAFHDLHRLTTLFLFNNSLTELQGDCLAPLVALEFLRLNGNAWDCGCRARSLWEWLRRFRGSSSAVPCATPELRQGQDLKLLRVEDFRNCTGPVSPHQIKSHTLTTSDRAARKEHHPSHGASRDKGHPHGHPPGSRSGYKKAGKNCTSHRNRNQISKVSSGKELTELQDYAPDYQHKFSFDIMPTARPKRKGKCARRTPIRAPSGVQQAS

[1] = target: T2, fragments of rat NgR1 (sNgR310) (Rattus norvegicus, UniProt Q99M75, A303T/C287S/C43R/E284G/T53A); assay: Western blot of acid/CNBr fragments of sNgR310 probed with 7E11; format: binding
T2 construct: intact rat NgR1 (aa 27-aa 310); made in house
T2 sequence (Q99M75 27-310 C43R/T53A/E284G/C287S/A303T): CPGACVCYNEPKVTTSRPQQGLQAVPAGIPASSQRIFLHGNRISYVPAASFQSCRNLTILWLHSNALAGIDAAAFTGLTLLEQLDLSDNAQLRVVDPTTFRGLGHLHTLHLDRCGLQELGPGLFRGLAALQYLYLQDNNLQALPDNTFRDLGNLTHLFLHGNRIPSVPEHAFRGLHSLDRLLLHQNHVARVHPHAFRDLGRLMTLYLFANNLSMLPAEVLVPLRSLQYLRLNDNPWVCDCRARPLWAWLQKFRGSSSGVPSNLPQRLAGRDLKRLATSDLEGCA
Description: (§1) A recombinant fragment of the rat NgR1 that contains all 8 LRR domains and the N- and C-terminal caps (sNgR310) was treated with either acid or cyanogen bromide (CNBr) and separated the fragments by gel electrophoresis. Untreated sNgR310 migrates with an apparent molecular weight of 42 kDa. Acid treatment of sNgR310 produced two major cleavage products of 15 kDa (aa 27-aa 122) and 30 kDa (aa 123-aa 310). CNBr treatment generated three fragments, a 33/35 kDa doublet (aa 27-aa 229), which may represent fragments with heterogeneous glycosylation, a 10 kDa product (aa 241-aa 310), and an 11-amino-acid fragment (as 230-aa 240), which is not retained on the gel. […] Both the 15 kDa acid fragment and the 35 kDa CNBr fragment contained the sequence […] (SEQ ID NO: 1), consistent with 7E11 binding to a single epitope on NgR1.

[2] = target: T3, fragments of rat NgR1 (sNgR310) (Rattus norvegicus, UniProt Q99M75, A303T/C287S/E284G); assay: as above; format: binding
T3 construct: intact rat NgR1 (aa 27-aa 310); made in house
T3 sequence (Q99M75 241-310 E284G/C287S/A303T): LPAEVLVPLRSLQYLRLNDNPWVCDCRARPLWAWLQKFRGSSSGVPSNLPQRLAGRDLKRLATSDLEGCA
Description: as §1

[3] = target: T4, fragments of rat NgR1 (sNgR310) (Rattus norvegicus, UniProt Q99M75, A303T/C287S/E284G); assay: as above; format: binding; remark: listed apart in the source
T4 construct: intact rat NgR1 (aa 27-aa 310); made in house
T4 sequence (Q99M75 123-310 E284G/C287S/A303T): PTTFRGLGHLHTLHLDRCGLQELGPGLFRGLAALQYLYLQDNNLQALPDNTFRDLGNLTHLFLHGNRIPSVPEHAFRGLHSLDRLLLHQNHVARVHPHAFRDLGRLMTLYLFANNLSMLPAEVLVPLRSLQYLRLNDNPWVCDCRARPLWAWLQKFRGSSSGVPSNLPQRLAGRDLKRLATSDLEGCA
Description: as §1

[4] = target: T5, fragments of rat NgR1 (sNgR310) (Rattus norvegicus, UniProt Q99M75, C43R/T53A); assay: as above; format: binding
T5 construct: intact rat NgR1 (aa 27-aa 310); made in house
T5 sequence (Q99M75 27-122 C43R/T53A): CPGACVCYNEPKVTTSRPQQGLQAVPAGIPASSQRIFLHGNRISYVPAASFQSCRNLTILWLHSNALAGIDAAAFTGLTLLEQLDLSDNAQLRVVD
Description: as §1

[5] = target: T6, fragments of rat NgR1 (sNgR310) (Rattus norvegicus, UniProt Q99M75, C43R/T53A); assay: as above; format: binding; remark: listed apart in the source
T6 construct: intact rat NgR1 (aa 27-aa 310); made in house
T6 sequence (Q99M75 27-229 C43R/T53A): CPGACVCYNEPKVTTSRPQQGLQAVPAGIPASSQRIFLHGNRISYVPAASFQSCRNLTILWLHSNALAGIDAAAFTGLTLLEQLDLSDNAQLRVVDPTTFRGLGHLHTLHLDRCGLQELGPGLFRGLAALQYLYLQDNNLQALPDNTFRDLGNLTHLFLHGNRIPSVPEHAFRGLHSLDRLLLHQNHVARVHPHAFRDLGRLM
Description: as §1

[6] = test system: DRG neurons, myelin-mediated inhibition of neurite outgrowth; assay: Neurite outgrowth assay, P3-4 rat DRG neurons on CNS myelin (Example 5); format: cell-based; conditions: mAb added after plating
Description: To test the ability of the monoclonal and Fab-phage antibodies produced above to lessen the inhibitory effect of CNS myelin on neurons, Lab-Tek® culture slides (4 wells) were coated with 0.1 mg/ml poly-D-lysine (Sigma®). CNS myelin or PBS was spotted as 3 μl drops. Fluorescent microspheres (Polysciences) were added to the myelin/PBS to allow later identification of the drops (Grandpre et al., Nature 403:439-444 (2000)). Lab-Tek® slides were then rinsed and coated with 10 μg/ml laminin (Gibco™). Dorsal root ganglions (DRG's) from P3-4 Sprague Dawley rat pups were dissociated with 1 mg/ml collagenase type 1 (Worthington), triturated with fire-polished Pasteur pipettes pre-plated to enrich in neuronal cells and finally plated at 23,000 cells/well on the pre-coated Lab-Tek® culture slides. The culture medium was F12 containing 5% heat inactivated donor horse serum, 5% heat inactivated fetal bovine serum and 50 ng/ml mNGF and incubated at 37° C. and 5% CO2 for 6 hours. Fifteen […] of mAb 7E11 was added immediately after plating.
Slides were fixed for 20 minutes with 4% paraformaldehyde containing 20% sucrose and stained for the neuronal marker anti beta-III-tubulin (Covance TUJ1) diluted 1:500. […] 5× digital images were acquired with OpenLab™ software and analysed by using the MetaMorph® software for quantification of neurite outgrowth.

B1: 7E11: murine monoclonal anti-Nogo receptor-1 antibody, immunogen rat Nogo receptor-1 residues 110-125, IgG1 kappa, ATCC PTA-4587 (antibody, V domains shown)
VH: VQLQESGAELVMPGASVKMSCKASGYTFTDYWMHWVKQRPGQGLEWIGAIDPSDSYSSYNQNFKGKATLTVDGSSSTAYMQLSSLTSEDSAVYYCARRITEAGAWFAYWGQGTTVT
VL: MKLPVRLLVLMFWIPASSSDVVMTQTPLSLPVSLGDQASISCRSSQSLVHSNGNTYLHWYLQKPGQSPKLLIYKVSNRFSGVPDRFSGSGSGTDFTLKISRVDAEDLGVYFCSQSTHVPFTFGGGTKLEIKRADAAPTVSISHH
modifications: 7E11 heavy chain; 7E11 light chain
notes: murine monoclonal anti-Nogo receptor-1 antibody, immunogen rat Nogo receptor-1 residues 110-125, IgG1 kappa, ATCC PTA-4587
Mouse NgR3
  binding to mouse Nogo receptor-3: not
[1]
  binding to intact rat NgR1 (aa 27-aa 310): bound
[2]
  binding to the 10 kDa CNBr fragment (aa 241-aa 310): did not bind
[3]
  binding to the 30 kDa acid fragment (aa 123-aa 310): did not bind
[4]
  binding to the 15 kDa acid fragment (aa 27-aa 122): bound
[5]
  binding to the 35 kDa CNBr fragment (aa 27-aa 229): bound
[6]
  protection of DRG neurons from myelin-mediated inhibition of neurite outgrowth: protected
